How the values were obtained:
SOX17-Flag (rSOX17-Flag) [1] = target: T1, SOX17-Flag (rSOX17-Flag) (UniProt Q9H6I2 1-414); test: EMSA; EMSA: 100 mM HEPES pH 8.0, 50 mM KCl, 500 uM DTT, 50 uM EDTA, 1 mM MgCl2, 5% glycerol, 0.02 U poly(dG-dC), 0.3 pmol biotin probe, 300-fold excess competitor; 7%
SOX17-Flag (rSOX17-Flag) [2] = target: T1, SOX17-Flag (rSOX17-Flag); test: competition; 300-fold excess vs Lef1_Biot; EMSA: 100 mM HEPES pH 8.0, 50 mM KCl, 500 uM DTT, 50 uM EDTA, 1 mM MgCl2, 5% glycerol, 0.02 U poly(dG-dC), 0.3 pmol biotin probe, 300-fold excess competitor; 7%

T1 sequence (Q9H6I2 whole entry): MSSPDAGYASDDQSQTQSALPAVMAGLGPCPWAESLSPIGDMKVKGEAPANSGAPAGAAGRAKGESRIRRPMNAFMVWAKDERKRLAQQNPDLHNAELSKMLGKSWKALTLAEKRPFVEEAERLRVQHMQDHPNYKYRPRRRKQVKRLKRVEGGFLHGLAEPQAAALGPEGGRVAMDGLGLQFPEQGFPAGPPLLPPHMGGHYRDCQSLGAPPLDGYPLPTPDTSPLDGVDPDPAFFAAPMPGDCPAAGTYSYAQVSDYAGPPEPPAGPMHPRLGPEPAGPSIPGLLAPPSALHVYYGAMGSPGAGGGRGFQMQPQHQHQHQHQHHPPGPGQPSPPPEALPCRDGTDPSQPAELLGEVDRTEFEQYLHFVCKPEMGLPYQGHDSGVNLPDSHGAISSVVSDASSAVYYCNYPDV

Row | Binder | binding result (SOX17-Flag (rSOX17-Flag) [1]) | binding result (SOX17-Flag (rSOX17-Flag) [2])
1 | Lef1_Biot (dsDNA) DNA 1: CATTTCTTTATGTCCTTTGTTTACTGTTCTG DNA 2: CAGAACAGTAAACAAAGGACATAAAGAAATG | binds | –
2 | Lef1_s1 (dsDNA) DNA 1: CATTTCTTTATGTCCTTTGTTTACTGTTCTG DNA 2: CAGAACAGTAAACAAAGGACATAAAGAAATG | – | binds
3 | Lef1_Δ_s1 (dsDNA) DNA 1: CATTTCTTTATGTCAGGGTGGTACTGTTCTG DNA 2: CAGAACAGTACCACCCTGACATAAAGAAATG | – | no binding
